In patent US11851495 (Boehringer Ingelheim, dated 2023):

B1: CDH17v1/TR2v1 (bispecific antibody, human IgG1, kappa)
heavy: not shown
light: DIVMSQSPSSLAVSVGEKVTMSCKSSQSLLHSSNQKNYLAWYQQKPGQSPKVLIYWASTRESGVPDRFTGSGSGTDFTLTITSVKSEDLAVYYCQQYYSYPWTFGGGTRLEIKRTVAAPSVFIFPPSDEQLKSGTASVVCLLNNFYPREAKVQWKVDNALQSGNSQESVTEQDSKDSTYSLSSTLTLSKADYEKHKVYACEVTHQGLSSPVTKSFNRGEC
B2: CDH17v1/TR2#3-(IgG1 KO) (bispecific antibody)
heavy: not shown
light: DIVMSQSPSSLAVSVGEKVTMSCKSSQSLLHSSNQKNYLAWYQQKPGQSPKVLIYWASTRESGVPDRFTGSGSGTDFTLTITSVKSEDLAVYYCQQYYSYPWTFGGGTRLEIKRTVAAPSVFIFPPSDEQLKSGTASVVCLLNNFYPREAKVQWKVDNALQSGNSQESVTEQDSKDSTYSLSSTLTLSKADYEKHKVYACEVTHQGLSSPVTKSFNRGEC
B3: CDH17v1/TR2#1-(IgG1 KO) (bispecific antibody)
heavy: not shown
light: DIVMSQSPSSLAVSVGEKVTMSCKSSQSLLHSSNQKNYLAWYQQKPGQSPKVLIYWASTRESGVPDRFTGSGSGTDFTLTITSVKSEDLAVYYCQQYYSYPWTFGGGTRLEIKRTVAAPSVFIFPPSDEQLKSGTASVVCLLNNFYPREAKVQWKVDNALQSGNSQESVTEQDSKDSTYSLSSTLTLSKADYEKHKVYACEVTHQGLSSPVTKSFNRGEC
B4: CDH17v1/TR2v1-(IgG1 KO) (bispecific antibody)
heavy: not shown
light: DIVMSQSPSSLAVSVGEKVTMSCKSSQSLLHSSNQKNYLAWYQQKPGQSPKVLIYWASTRESGVPDRFTGSGSGTDFTLTITSVKSEDLAVYYCQQYYSYPWTFGGGTRLEIKRTVAAPSVFIFPPSDEQLKSGTASVVCLLNNFYPREAKVQWKVDNALQSGNSQESVTEQDSKDSTYSLSSTLTLSKADYEKHKVYACEVTHQGLSSPVTKSFNRGEC
B5: CDH17v1/TR2#10-(IgG1 KO) (bispecific antibody)
heavy: not shown
light: DIVMSQSPSSLAVSVGEKVTMSCKSSQSLLHSSNQKNYLAWYQQKPGQSPKVLIYWASTRESGVPDRFTGSGSGTDFTLTITSVKSEDLAVYYCQQYYSYPWTFGGGTRLEIKRTVAAPSVFIFPPSDEQLKSGTASVVCLLNNFYPREAKVQWKVDNALQSGNSQESVTEQDSKDSTYSLSSTLTLSKADYEKHKVYACEVTHQGLSSPVTKSFNRGEC
B6: CDH17v1/TR2#8-(IgG1 KO) (bispecific antibody)
heavy: not shown
light: DIVMSQSPSSLAVSVGEKVTMSCKSSQSLLHSSNQKNYLAWYQQKPGQSPKVLIYWASTRESGVPDRFTGSGSGTDFTLTITSVKSEDLAVYYCQQYYSYPWTFGGGTRLEIKRTVAAPSVFIFPPSDEQLKSGTASVVCLLNNFYPREAKVQWKVDNALQSGNSQESVTEQDSKDSTYSLSSTLTLSKADYEKHKVYACEVTHQGLSSPVTKSFNRGEC
B7: CDH17v1/TR2#2-(IgG1 KO) (bispecific antibody)
heavy: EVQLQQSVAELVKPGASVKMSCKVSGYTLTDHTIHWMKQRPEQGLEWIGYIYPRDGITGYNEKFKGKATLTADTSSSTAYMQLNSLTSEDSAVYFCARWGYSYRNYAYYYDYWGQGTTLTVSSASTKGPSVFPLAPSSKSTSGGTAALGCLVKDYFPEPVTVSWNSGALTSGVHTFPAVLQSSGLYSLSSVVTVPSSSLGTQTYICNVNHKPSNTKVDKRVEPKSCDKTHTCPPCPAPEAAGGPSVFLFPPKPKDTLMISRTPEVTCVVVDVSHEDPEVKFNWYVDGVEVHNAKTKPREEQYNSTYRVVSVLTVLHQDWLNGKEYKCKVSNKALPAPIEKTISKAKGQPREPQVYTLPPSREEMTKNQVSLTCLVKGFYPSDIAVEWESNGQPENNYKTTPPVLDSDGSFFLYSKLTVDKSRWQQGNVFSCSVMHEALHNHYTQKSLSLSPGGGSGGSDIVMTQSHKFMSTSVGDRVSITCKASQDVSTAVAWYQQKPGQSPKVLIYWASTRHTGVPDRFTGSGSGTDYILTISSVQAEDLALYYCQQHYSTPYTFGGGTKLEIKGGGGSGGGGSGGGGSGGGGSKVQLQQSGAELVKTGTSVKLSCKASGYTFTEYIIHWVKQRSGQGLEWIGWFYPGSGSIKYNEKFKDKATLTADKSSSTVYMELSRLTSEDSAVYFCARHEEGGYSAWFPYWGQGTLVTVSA
light: DIVMSQSPSSLAVSVGEKVTMSCKSSQSLLHSSNQKNYLAWYQQKPGQSPKVLIYWASTRESGVPDRFTGSGSGTDFTLTITSVKSEDLAVYYCQQYYSYPWTFGGGTRLEIKRTVAAPSVFIFPPSDEQLKSGTASVVCLLNNFYPREAKVQWKVDNALQSGNSQESVTEQDSKDSTYSLSSTLTLSKADYEKHKVYACEVTHQGLSSPVTKSFNRGEC
B8: anti-TRAILR2 antibody (anti-TR2v2) (antibody, V domains shown)
VH: EVQLVQSGGGVERPGGSLRLSCAASGFTFDDYGMSWVRQAPGKGLEWVSGINWNGGSTGYADSVKGRVTISRDNAKNSLYLQMNSLRAEDTAVYYCAKILGAGRGWYFDLWGKGTTVTVSS
VL: SSELTQDPAVSVALGQTVRITCQGDSLRSYYASWYQQKPGQAPVLVIYGKNNRPSGIPDRFSGSSSGNTASLTITGAQAEDEADYYCNSRDSSGNHVVFGGGTKLTVL
B9: CDH17E9/TR2v2-(IgG1 KO) (bispecific antibody)
heavy: not shown
light: DIVMTQSQTFMSTTVGDRVSITCKASQNVGTALAWYQQKPRQSPKLLIYSASNRFTGVPDRFTGSGSGTDFTLTISNMRSEDLADYVCQQYSTYPLTFGSGTKLEIRRTVAAPSVFIFPPSDEQLKSGTASVVCLLNNFYPREAKVQWKVDNALQSGNSQESVTEQDSKDSTYSLSSTLTLSKADYEKHKVYACEVTHQGLSSPVTKSFNRGEC
B10: CDH17H2/TR2v2-(IgG1 KO) (bispecific antibody)
heavy: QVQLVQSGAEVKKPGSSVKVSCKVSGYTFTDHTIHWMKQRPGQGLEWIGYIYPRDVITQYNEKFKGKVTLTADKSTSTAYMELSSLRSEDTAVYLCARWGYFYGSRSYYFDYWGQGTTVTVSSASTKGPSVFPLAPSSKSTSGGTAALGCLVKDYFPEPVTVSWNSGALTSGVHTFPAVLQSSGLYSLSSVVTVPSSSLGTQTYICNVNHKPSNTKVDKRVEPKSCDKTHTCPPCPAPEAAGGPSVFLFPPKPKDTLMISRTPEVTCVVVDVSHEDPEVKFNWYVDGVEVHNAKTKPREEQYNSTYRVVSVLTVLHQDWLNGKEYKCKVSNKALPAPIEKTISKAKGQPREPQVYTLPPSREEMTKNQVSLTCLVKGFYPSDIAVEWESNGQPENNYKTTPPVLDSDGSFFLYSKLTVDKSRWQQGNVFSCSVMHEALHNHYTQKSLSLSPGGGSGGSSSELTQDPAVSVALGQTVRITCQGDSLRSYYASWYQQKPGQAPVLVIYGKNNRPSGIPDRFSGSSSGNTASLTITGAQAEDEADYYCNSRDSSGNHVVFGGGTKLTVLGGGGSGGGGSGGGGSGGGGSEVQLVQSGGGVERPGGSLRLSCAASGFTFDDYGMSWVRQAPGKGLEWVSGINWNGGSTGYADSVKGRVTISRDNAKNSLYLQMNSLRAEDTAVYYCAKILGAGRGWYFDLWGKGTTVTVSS
light: DIQMTQSQSSLSASVGDRVGITCKASQNVGTAVAWYQQKPGKAPKLLIYSASNRYTGVPSRFSGSGSGTDFTLTISSLQPKDFATYFCQQYSSYPWTFGQGTKLEIKRTVAAPSVFIFPPSDEQLKSGTASVVCLLNNFYPREAKVQWKVDNALQSGNSQESVTEQDSKDSTYSLSSTLTLSKADYEKHKVYACEVTHQGLSSPVTKSFNRGEC
B11: CDH17H2/TR2v3-(IgG1 KO) (bispecific antibody)
heavy: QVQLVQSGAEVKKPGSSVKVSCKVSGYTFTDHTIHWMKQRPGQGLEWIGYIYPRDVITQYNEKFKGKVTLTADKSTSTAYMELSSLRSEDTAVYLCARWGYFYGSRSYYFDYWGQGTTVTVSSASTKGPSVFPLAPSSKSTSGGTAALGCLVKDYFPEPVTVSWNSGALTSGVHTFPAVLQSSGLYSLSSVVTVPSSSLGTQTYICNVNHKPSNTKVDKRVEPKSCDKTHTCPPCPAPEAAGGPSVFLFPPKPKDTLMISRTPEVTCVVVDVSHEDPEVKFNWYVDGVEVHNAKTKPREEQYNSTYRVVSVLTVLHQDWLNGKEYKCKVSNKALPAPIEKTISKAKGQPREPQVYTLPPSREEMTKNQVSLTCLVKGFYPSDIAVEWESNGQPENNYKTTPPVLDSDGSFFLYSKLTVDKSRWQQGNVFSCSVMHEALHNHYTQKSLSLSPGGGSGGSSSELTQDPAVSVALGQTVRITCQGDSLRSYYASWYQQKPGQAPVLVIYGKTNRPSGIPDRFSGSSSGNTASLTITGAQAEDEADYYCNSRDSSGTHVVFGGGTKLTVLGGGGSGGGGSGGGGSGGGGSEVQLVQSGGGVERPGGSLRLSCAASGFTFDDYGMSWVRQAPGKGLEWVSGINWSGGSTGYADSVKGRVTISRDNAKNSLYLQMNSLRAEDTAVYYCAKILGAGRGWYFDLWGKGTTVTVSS
light: DIQMTQSQSSLSASVGDRVGITCKASQNVGTAVAWYQQKPGKAPKLLIYSASNRYTGVPSRFSGSGSGTDFTLTISSLQPKDFATYFCQQYSSYPWTFGQGTKLEIKRTVAAPSVFIFPPSDEQLKSGTASVVCLLNNFYPREAKVQWKVDNALQSGNSQESVTEQDSKDSTYSLSSTLTLSKADYEKHKVYACEVTHQGLSSPVTKSFNRGEC
B12: CDH17H2/TR2v7-(IgG1 KO) (bispecific antibody)
heavy: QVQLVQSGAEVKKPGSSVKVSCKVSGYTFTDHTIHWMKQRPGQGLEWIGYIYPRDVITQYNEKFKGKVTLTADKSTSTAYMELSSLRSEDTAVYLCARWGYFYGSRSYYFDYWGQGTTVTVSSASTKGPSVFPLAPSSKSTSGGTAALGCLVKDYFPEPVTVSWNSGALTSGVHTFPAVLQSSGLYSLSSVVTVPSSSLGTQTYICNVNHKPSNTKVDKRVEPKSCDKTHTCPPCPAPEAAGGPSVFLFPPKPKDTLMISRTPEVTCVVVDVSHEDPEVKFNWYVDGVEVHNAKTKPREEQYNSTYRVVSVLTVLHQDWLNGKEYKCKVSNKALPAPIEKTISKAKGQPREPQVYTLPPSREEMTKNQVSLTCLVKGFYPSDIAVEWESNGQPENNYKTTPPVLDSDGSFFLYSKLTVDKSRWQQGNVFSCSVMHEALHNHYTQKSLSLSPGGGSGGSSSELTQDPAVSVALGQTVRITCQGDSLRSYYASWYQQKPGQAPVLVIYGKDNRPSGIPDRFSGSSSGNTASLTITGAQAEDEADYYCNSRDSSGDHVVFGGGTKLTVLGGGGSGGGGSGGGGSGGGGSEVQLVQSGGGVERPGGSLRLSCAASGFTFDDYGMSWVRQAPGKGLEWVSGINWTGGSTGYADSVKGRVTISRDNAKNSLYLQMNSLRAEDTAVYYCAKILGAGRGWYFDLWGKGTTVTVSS
light: DIQMTQSQSSLSASVGDRVGITCKASQNVGTAVAWYQQKPGKAPKLLIYSASNRYTGVPSRFSGSGSGTDFTLTISSLQPKDFATYFCQQYSSYPWTFGQGTKLEIKRTVAAPSVFIFPPSDEQLKSGTASVVCLLNNFYPREAKVQWKVDNALQSGNSQESVTEQDSKDSTYSLSSTLTLSKADYEKHKVYACEVTHQGLSSPVTKSFNRGEC
B13: CDH17H2/TR2v4-(IgG1 KO) (bispecific antibody)
heavy: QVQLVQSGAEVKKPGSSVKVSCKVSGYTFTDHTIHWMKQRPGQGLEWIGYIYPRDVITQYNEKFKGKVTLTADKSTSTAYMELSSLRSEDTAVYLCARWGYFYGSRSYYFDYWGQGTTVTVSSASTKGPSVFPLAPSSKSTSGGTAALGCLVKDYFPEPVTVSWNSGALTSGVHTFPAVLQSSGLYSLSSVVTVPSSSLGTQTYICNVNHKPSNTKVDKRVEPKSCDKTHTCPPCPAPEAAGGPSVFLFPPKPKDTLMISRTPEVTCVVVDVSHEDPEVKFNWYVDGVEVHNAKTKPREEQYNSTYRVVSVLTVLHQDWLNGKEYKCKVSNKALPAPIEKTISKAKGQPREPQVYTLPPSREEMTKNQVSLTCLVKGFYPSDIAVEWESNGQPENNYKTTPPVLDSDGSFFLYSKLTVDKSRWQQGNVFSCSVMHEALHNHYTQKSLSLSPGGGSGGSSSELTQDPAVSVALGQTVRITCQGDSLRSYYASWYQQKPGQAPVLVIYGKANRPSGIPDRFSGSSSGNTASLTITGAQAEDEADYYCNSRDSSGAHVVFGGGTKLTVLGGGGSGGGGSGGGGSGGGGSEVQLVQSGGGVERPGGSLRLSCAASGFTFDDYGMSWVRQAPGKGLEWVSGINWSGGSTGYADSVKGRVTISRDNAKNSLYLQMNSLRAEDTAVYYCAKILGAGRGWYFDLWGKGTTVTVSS
light: DIQMTQSQSSLSASVGDRVGITCKASQNVGTAVAWYQQKPGKAPKLLIYSASNRYTGVPSRFSGSGSGTDFTLTISSLQPKDFATYFCQQYSSYPWTFGQGTKLEIKRTVAAPSVFIFPPSDEQLKSGTASVVCLLNNFYPREAKVQWKVDNALQSGNSQESVTEQDSKDSTYSLSSTLTLSKADYEKHKVYACEVTHQGLSSPVTKSFNRGEC
B14: CDH17H2/TR2v5-(IgG1 KO) (bispecific antibody)
heavy: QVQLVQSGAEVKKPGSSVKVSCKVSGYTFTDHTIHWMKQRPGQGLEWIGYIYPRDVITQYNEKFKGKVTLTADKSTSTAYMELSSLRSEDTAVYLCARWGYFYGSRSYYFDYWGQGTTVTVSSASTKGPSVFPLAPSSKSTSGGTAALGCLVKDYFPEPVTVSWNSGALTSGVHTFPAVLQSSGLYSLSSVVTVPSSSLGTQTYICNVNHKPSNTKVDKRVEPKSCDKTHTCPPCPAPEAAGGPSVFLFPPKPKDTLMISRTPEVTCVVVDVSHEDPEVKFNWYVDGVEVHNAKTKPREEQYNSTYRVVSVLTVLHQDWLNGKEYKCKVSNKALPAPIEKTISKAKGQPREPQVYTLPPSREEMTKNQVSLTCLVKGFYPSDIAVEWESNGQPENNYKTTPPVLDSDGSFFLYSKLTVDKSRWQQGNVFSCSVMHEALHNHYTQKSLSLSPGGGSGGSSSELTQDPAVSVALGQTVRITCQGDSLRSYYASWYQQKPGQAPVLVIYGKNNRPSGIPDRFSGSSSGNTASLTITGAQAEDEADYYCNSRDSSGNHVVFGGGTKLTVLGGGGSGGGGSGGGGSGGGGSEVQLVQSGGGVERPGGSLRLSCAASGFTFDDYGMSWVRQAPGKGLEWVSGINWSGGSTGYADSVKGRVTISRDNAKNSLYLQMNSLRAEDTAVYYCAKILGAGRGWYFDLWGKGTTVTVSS
light: DIQMTQSQSSLSASVGDRVGITCKASQNVGTAVAWYQQKPGKAPKLLIYSASNRYTGVPSRFSGSGSGTDFTLTISSLQPKDFATYFCQQYSSYPWTFGQGTKLEIKRTVAAPSVFIFPPSDEQLKSGTASVVCLLNNFYPREAKVQWKVDNALQSGNSQESVTEQDSKDSTYSLSSTLTLSKADYEKHKVYACEVTHQGLSSPVTKSFNRGEC
B15: CDH17H2/TR2v6-(IgG1 KO) (bispecific antibody)
heavy: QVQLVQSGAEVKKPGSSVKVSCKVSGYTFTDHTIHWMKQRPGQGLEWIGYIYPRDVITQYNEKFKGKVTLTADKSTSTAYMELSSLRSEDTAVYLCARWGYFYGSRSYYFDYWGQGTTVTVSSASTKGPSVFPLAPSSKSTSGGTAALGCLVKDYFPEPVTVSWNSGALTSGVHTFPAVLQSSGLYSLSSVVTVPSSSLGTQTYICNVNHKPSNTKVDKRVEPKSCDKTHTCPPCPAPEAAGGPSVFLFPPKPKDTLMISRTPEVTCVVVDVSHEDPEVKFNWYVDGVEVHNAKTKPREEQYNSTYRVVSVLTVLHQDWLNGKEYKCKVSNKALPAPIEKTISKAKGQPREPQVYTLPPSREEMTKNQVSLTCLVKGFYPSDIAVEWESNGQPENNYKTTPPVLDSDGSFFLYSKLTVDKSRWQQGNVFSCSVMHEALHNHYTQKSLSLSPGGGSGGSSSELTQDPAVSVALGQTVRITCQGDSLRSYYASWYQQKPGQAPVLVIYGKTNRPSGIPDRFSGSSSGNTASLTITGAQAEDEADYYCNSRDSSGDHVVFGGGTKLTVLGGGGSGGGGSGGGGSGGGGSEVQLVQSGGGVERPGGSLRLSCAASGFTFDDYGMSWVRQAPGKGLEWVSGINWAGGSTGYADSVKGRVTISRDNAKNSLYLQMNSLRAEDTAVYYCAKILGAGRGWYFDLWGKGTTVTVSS
light: DIQMTQSQSSLSASVGDRVGITCKASQNVGTAVAWYQQKPGKAPKLLIYSASNRYTGVPSRFSGSGSGTDFTLTISSLQPKDFATYFCQQYSSYPWTFGQGTKLEIKRTVAAPSVFIFPPSDEQLKSGTASVVCLLNNFYPREAKVQWKVDNALQSGNSQESVTEQDSKDSTYSLSSTLTLSKADYEKHKVYACEVTHQGLSSPVTKSFNRGEC
B16: CDH17A6/TR2v2-(IgG1 KO) (bispecific antibody)
heavy: not shown
light: DIVMTQSQKFMSTTVGDRVSITCKASQNVGTGVVWYQQRPGQSPKLLIYSPSNRYTGVPDRFTGSGSGTDFTLTITNIQSEDLADYFCQQYSTYPWTFGGGTKLEIKRTVAAPSVFIFPPSDEQLKSGTASVVCLLNNFYPREAKVQWKVDNALQSGNSQESVTEQDSKDSTYSLSSTLTLSKADYEKHKVYACEVTHQGLSSPVTKSFNRGEC
B17: CDH17E2/TR2v2-(IgG1 KO) (bispecific antibody)
heavy: not shown
light: DIVMTQSQKFMSTTVGDRVNITCKASQNVGTAVAWYQQKPGQSPKLLIYSASNRYTGVPDRFTGSGSGTDFTLTITNMQSKDLADYFCQQYSSYPWTFGGGTKLEIKRTVAAPSVFIFPPSDEQLKSGTASVVCLLNNFYPREAKVQWKVDNALQSGNSQESVTEQDSKDSTYSLSSTLTLSKADYEKHKVYACEVTHQGLSSPVTKSFNRGEC

How the values were obtained:
[1] = target: TNF-related apoptosis-inducing ligand receptor 2 (TRAILR2) (human, UniProt O14763 56-440); experiment: cell-based or functional assay
cadherin-17 (CDH17) = cadherin-17 (CDH17) (human, UniProt Q12864 23-832); experiment: cell-based or functional assay

Row | Binder | cell viability of Colo-205 cells, 24 h (CellTiter-Glo) [1] [fold] | cell viability of Colo-205 cells, 24 h (CellTiter-Glo) (cadherin-17 (CDH17)) [fold] | cell viability of Colo-205 cells, 24 h [1] [nM] | cell viability of Colo-205 cells, 24 h (cadherin-17 (CDH17)) [nM] | concentration needed for an effect on viability of HepG2 cells (CDH17 negative), 72 h [1] [nM]
1 | B1 | > 1000 | > 1000 | – | – | –
2 | B2 | – | – | 0.01 | 0.01 | –
3 | B3 | – | – | 0.01 | 0.01 | –
4 | B4 | – | – | 0.01 | 0.01 | –
5 | B5 | – | – | 0.01 | 0.01 | –
6 | B6 | – | – | 0.01 | 0.01 | –
7 | B7 | – | – | 0.01 | 0.01 | –
8 | B8 | – | – | 0.01 | – | –
9 | B9 | – | – | 0.01 | 0.01 | –
10 | B10 | – | – | 0.01 | 0.01 | > 1
11 | B11 | – | – | 0.01 | 0.01 | > 1
12 | B12 | – | – | 0.01 | 0.01 | > 1
13 | B13 | – | – | 0.01 | 0.01 | > 1
14 | B14 | – | – | 0.01 | 0.01 | > 1
15 | B15 | – | – | 0.01 | 0.01 | > 1
16 | B16 | – | – | 0.01 | 0.01 | –
17 | B17 | – | – | 0.01 | 0.01 | –
